Experimental data: article PMC2810717

Substrate: CC(=O)NCCCNCCCCNCCCN
Test: purified protein
Format: biochemical, Homo sapiens
Settings: FAD; pH 8.3; 25.0 °C

B1: spermine oxidase (SMO) (Homo sapiens) (protein)
chain: MQSCESSGDSADDPLSRGLRRRGQPRVVVIGAGLAGLAAAKALLEQGFTDVTVLEASSHIGGRVQSVKLGHATFELGATWIHGSHGNPIYHLAEANGLLEETTDGERSVGRISLYSKNGVACYLTNHGRRIPKDVVEEFSDLYNEVYNLTQEFFRHDKPVNAESQNSVGVFTREEVRNRIRNDPDDPEATKRLKLAMIQQYLKVESCESSSHSMDEVSLSAFGEWTEIPGAHHIIPSGFMRVVELLAEGIPAHVIQLGKPVRCIHWDQASARPRGPEIEPRGEGDHNHDTGEGGQGGEEPRGGRWDEDEQWSVVVECEDCELIPADHVIVTVSLGVLKRQYTSFFRPGLPTEKVAAIHRLGIGTTDKIFLEFEEPFWGPECNSLQFVWEDEAESHTLTYPPELWYRKICGFDVLYPPERYGHVLSGWICGEEALVMEKCDDEAVAEICTEMLRQFTGNPNIPKPRRILRSAWGSNPYFRGSYSYTQVGSSGADVEKLAKPLPYTESSKTAPMQVLFSGEATHRKYYSTTHGALLSGQREAARLIEMYRDLFQQGT
Km: 492 ± 97 µM
